Data from patent US5445951A, “Regioselective enzymatic deacylation of sucrose esters in anhydrous organic media” (priority 1993, dated 1995).

B1: lipase type II: Sigma, porcine pancreas, 50 U/mg (protein, UniProt P00591 1-450, looked up)
Pancreatic triacylglycerol …: SEVCFPRLGCFSDDAPWAGIVQRPLKILPWSPKDVDTRFLLYTNQNQNNYQELVADPSTITNSNFRMDRKTRFIIHGFIDKGEEDWLSNICKNLFKVESVNCICVDWKGGSRTGYTQASQNIRIVGAEVAYFVEVLKSSLGYSPSNVHVIGHSLGSHAAGEAGRRTNGTIERITGLDPAEPCFQGTPELVRLDPSDAKFVDVIHTDAAPIIPNLGFGMSQTVGHLDFFPNGGKQMPGCQKNILSQIVDIDGIWEGTRDFVACNHLRSYKYYADSILNPDGFAGFPCDSYNVFTANKCFPCPSEGCPQMGHYADRFPGKTNGVSQVFYLNTGDASNFARWRYKVSVTLSGKKVTGHILVSLFGNEGNSRQYEIYKGTLQPDNTHSDEFDSDVEVGDLQKVKFIWYNNNVINPTLPRVGASKITVERNDGKVYDFCSQETVREEVLLTLNPC

Key:
[1] = Solubility in hydrophobic solvents; assay type: physicochemical; details: more hydrophobic solvents, e.g., hexane, cyclohexane, heptane, octane
[2] = SOA deacetylation catalyzed by pH precipitated enzymes in diisopropyl ether; assay type: biochemical; details: for buffer pH (optimal pH for enzyme activity in anhydrous solvents): SOA deacetylation; for SheptaAs / ShexaAs / SOA: diisopropyl ether, 24 hrs incubation, HPLC; for SOA: residual SOA
Description: A wide variety of hydrolytic enzymes were initially screened for their ability to regioselectively deacetylate SOA in organic solvents. […] Enzyme activity is dependent upon the presence of a minimum shell of water surrounding the enzyme. […] It is known that one way to improve the catalytic power of an enzyme in organic solvent is to use it in the right ionic state.
(§1) The pH of commercial powdered enzymes was adjusted in the following way: The enzyme (3 g) was dissolved in 25 ml of an appropriate buffer and the pH adjusted with dilute NaOH or citric/phosphoric acid solution. Cold acetone (37.5 ml at -20° C.) was added and the precipitate collected on a medium porosity glass funnel and dried overnight at 2 millitorr. The protein pellet was ground to a fine powder and equilibrated at 4° C. over saturated aqueous potassium carbonate (RH: 43%) for 24 hrs.
(§2) Enzyme and Solvent Screening for SOA Deacetylation. A scintillation vial was charged successively with 100 mg of powdered enzyme as received or prepared as described and 1.0 ml of 20 mM sucrose octaacetate (SOA) dissolved in an organic solvent. Following a 5 sec sonication, the vial was incubated in a controlled-temperature shaker at 45° C. and 300 RPM for 24 hrs. A 200 μl aliquot of the reaction mixture was withdrawn and centrifuged. The supernatant was collected and evaporated under a stream of N2. The residue was reconstituted in 200 μl of acetonitrile and 10 μl of this solution was analyzed by HPLC.

[3] = as obtained from supplier; cited from earlier work
[4] = SOP hydrolytic enzyme screen in heptane with n-butanol; assay type: biochemical; details: 24 hrs; for SheptaP's ([…]): HPLC peak […]; for SOP: residual SOP; as to SheptaP's ([…]): HPLC peak 8.2 min
Description: To extend the scope and utility of this study, sucrose octapropionate was synthesized and used as substrate in enzyme catalyzed deacylation reactions. […] The hydrolytic enzymes were screened for their capability to deacylate SOP in heptane with n-butanol as the nucleophile. After 24 hrs incubation aliquots were analyzed by HPLC.
as §2, with “screening” for “and Solvent Screening”, “SOP deacylation in heptane.” for “SOA Deacetylation.”, “octapropionate (SOP) and 200 mM butanol” for “octaacetate (SOA)”, “and” for “and evaporated under a stream of N2. The residue was reconstituted in 200 μl of acetonitrile and”

[5] = SOP deacylation catalyzed by pH precipitated enzymes in diisopropyl ether; assay type: biochemical; details: for buffer pH (optimal pH for enzyme activity in anhydrous media): SOP deacylation; for SOP / SheptaP's / ShexaP's: diisopropyl ether, 24 hrs
Description: To increase the number and/or activities of enzymes active with SOP, pH precipitation experiments, as described for SOA, were undertaken.
as §1

[6] = Activity and regioselectivity of enzymes for SOA deacetylation; assay type: biochemical; details: for buffer pH (optimal pH for enzyme activity in anhydrous diisopropyl ether): SOA deacetylation; for % conv: total of all sucrose hepta and hexa acetates; for regioselectivity of SOA deacetylation: in words
Description: An important aspect of this work was to assign, unequivocally, the structures of all sucrose hepta-, hexa-, and pentaacetates obtained by enzymatic deacetylation of SOA. These structures were assigned by perdeuterioacetylation followed by ^1 H-NMR, as described by Rathbone E. B., Carbohydr. Res., 205,402 (1990).
HPLC analysis. Routine screening was performed on a Supelcosil LC-18-DB column (150×4.6 mm, 5μ) using an isocratic mode with either acetonitrile/water (35/65) or acetonitrile/water (60/40) as eluant for reactions involving sucrose octaacetate (SOA) and sucrose octapropionate (SOP), respectively. All flow rates were 1.0 ml/min with UV detection at 220 nm. To identify all products from SOA deacetylation, a gradient mode was employed using 15% to 35% acetonitrile in water over 40 minutes followed by 35/65 acetonitrile/water isocratic elution for 20 minutes. To screen nucleophiles for SOA deacetylation, an isocratic elution mode was employed using 30/70 acetonitrile/water for 16 min followed by a gradient from 30% to 35% acetonitrile in water over 5 min and finally isocratic elution using 35/65 acetonitrile/water for 16 min. To assess the enzyme regiochemistry for SOA deacetylation, an isocratic elution mode was employed using 25/75 acetonitrile/water for 55 minutes.
Identification of the Sucrose Hepta, Hexa or Pentaacetates Obtained Enzymatically. The fraction of sucrose hepta, hexa or pentaacetates were identified as follows. The compound(s) of interest was dissolved in 1.0 ml 99.0 atom % pyridine--d5 followed by addition of 1.0 ml 99 +atom % acetic anhydride--d6. The resulting solution was shaken at 45° C. and 300 RPM for several hours until TLC analysis (silica gel, 9/1 CHCl3 /MeOH) indicated complete reaction. The reaction mixture was evaporated in vacuo and the residue washed several times with water to remove residual pyridine-d5 and/or acetic anhydride-d6. The resulting oily solid was dissolved in 5 ml off chloroform and passed through Whatmann 12.5 cm 1 PS silicone treated filter paper to remove water.
as §1, §2

[7] = HPLC sucrose heptaacetate peak height

Molecule | buffer pH (optimal pH for enzyme activity in anhydrous solvents) [2] | SheptaAs [2] [%] | ShexaAs [2] [%] | SOA [2] [%] | enzyme activity [3] [U/mg] | SheptaP's ([…]) [4] | SOP [4] [%] | buffer pH (optimal pH for enzyme activity in anhydrous media) [5] | SOP [5] [%] | SheptaP's [5] [%] | ShexaP's [5] [%] | buffer pH (optimal pH for enzyme activity in anhydrous diisopropyl ether) [6] | % conv [6] [%] | also measured
CCC(=O)OC[C@H]1O[C@@](COC(=O)CC)(O[C@H]2O[C@H](COC(=O)CC)[C@@H](OC(=O)CC)[C@H](OC(=O)CC)[C@H]2OC(=O)CC)[C@@H](OC(=O)CC)[C@@H]1OC(=O)CC [SOP, sucrose octapropionate] | – | – | – | – | – | – | – | – | – | – | – | – | – | solubility versus SOA [1]: significantly enhanced solubility
chymotrypsin | 8.0 | 2.5 | 0 | 97.5 | 48 | 3.9 | 96.1 | 8.0 | 98.2 | 1.8 | 0 | 8.0 | < 6 | –
B1 | 7.0 | 13.5 | 0.6 | 85.9 | 50 | 1.7 | 98.1 | 7.0 | 96.5 | 3.5 | 0 | 7.0 | 14.1 | SheptaP's (9.2 min) ([4]; HPLC peak 9.2 min): 0.2; BuOpropionate ([4]; butyl propionate formed, peak area): 59 cAUs; capability of deacetylating SOP ([5]; pH precipitated, in words): capable of deacetylating SOP; regiochemistry 4'OH [6, 7]: 1; regiochemistry 6'OH [6, 7]: 1; regioselectivity of SOA deacetylation [6]: the primary deacetylation product is the 4'- OH heptaacetate; regioselectivity of SOA deacetylation ([6]; listed as Porcine pancreatic lipase): at the 4' position
